In experiment [1] the target is Anti-roIFNT antibody. The experiment is described as follows: competitive RIA, unlabelled IFNT displacing 125I-roIFNT from the antibody; primary antibody at 1:60,000.
For experiment [2], the target named is Anti-roIFNT antibody. The experiment is described as follows: competitive RIA, unlabelled IFNT displacing 125I-roIFNT from the antibody; less dilute primary antibody.

“recombinant ovine IFNT (roIFNT) (ligand)”: the amount of ligand required to displace 50% binding was found to be 0.4 ng in the experiment with Anti-roIFNT antibody [1] and 1.5 ng with Anti-roIFNT antibody [2].

These data come from patent US20150114310A1.
